Experimental data as given in the DeepSol protein solubility set.

experiment: soluble on expression in E. coli; label from the status in PepcDB or PDB records

Row | Sequence | soluble on expression in E. coli
1 | VAHFTFQPDPEPREYGQTQKMNLFQSVTSALDNSLAKDPTAVIFGEDVAFGGVFRCTVGLRDKYGKDRVFNTPLCEQGIVGFGIGIAVTGATAIAEIQFADYIFPAFDQIVNEAAKYRYRSGDLFNCGSLTIRSPWGCVGHGALYHSQSPEAFFAHCPGIKVVIPRSPFQAKGLLLSCIEDKNPCIFFEPKILYRAAAEEVPIEPYNIPLSQAEVIQEGSDVTLVAWGTQVHVIREVASMAKEKLGVSCEVIDLRTIIPWDVDTICKSVIKTGRLLISHEAPLTGGFASEISSTVQEECFLNLEAPISRVCGYDTPFPHIFEPFYIPDKWKCYDALRKMINYGGHHHHHH | soluble
2 | MPMPNLPKELVEEILSFVPATYLKRLSATCKPWNRLIHNDKRFARKHYDNAAKEFLVFMMRKNFRIIRRGVNLHGADPSAEVKGELTLPDPYFKNSADEFHIDRVFHCDGLLLCTSKLERRMVVWNPLTGETKWIQTHEEGDNFFLGYSQEDKNISCKKSYKIMGFYRSGSKVWEYDFNSDSWRVLNGILPNWYFDKSYKCVSLKGNTYMLAGAVTDMGFDLSLQSYDFSTEKFAPVSLPVPSQARSLNGANRLSVVRGEKLALLYRRDKRSKAEIWVTNKIDDTTEGAVSWTKVLELDLSRELHALFTSNFLVDEEKKVFICCVSWKEDEDENKSNKVYIVGEDNIVKEIDSGEDATSGCEPTILSLYVPSLVYM | soluble
3 | ASWSHPQFEKSGGGGGLVPRGSKRADAGTASALAASQLPQATMPGKSMVAIAGSSYQGQNGLAIGVSRISDNGKVIIRLSGTTNSQGKTGVAAGVGYQW | soluble
4 | MGSDKIHHHHHHMTKPMHTPPLVPPQAWEAAREQLLVKEKALTRARDALAAERRQMPWMAVEKEYAFEGPEGRVSLVDLFEGRRQLIVYRAFFEPGVFGWPDHACRGCSMVADQVAHLAHLNARDTTLVFVSRAPQADIARLKARMGWQIPWFTVTDSFDADFGVDEWHGTNVFYRDGDRVFRTYFINNRGDEQMGSTWNYLDITPLGRQEVWEDSPEGYPQTPTYKWWNWHDSYVKDAEPDKKWVEVSDAGEAAFRNQD | not soluble
5 | MMKIIAFVGMPASGKSEASRIAAEMGIPVIIMGDVIRKEVLKRGLEPNDSNTGMVATDLRKHEGMGAVARRCISQIRETGSELVVVDGVRGIAEVECFRKEFGKGFILISIYAPIEVRFSRVQKRGRSDDMNSIEGLRHRDERELSWGMGEAIDASNVEIENNFTLETFRKDVRDVLSNYLEADLEK | not soluble
6 | MSLKNLPIGGVWKGKVKLHSNSPAQDYFANITLNTLDPNHIDVFFPEFAHATPRVQLDLHPTGSVNGSNYAQDLTMLDMCLYDGFNGNAISYEIMLKDEGRPAAGRRDGYFSIYRQGGTTTDEGERIDYRVKMYNPETGGQIDVRNNENMVWNSINLKRVRPVVLPGIRYAVMCVPTPLTLAVDKFSVMDKQAGYYMGKLSVIFTPSLPTINEGHHHHHH | soluble
7 | MAHHHHHHGTEKTPDDVFKLAKDEKVEYVDVRFCDLPGIMQHFTIPASAFDKSVFDDGLAFDGSSIRGFQSIHESDMLLLPDPETARIDPFRAAKTLNINFFVHDPFTLEPYSRDPRNIARKAENYLISTGIADTAYFGAEAEFYIFDSVSFDSRANGSFYEVDAISGWWNTGAATEADGSPNRGYKVRHKGGYFPVAPNDQYVDLRDKMLTNLINSGFILEKGHHEVGSGGQAEINYQFNSLLHAADDMQLYKYIIKNTAWQNGKTVTFMPKPLFGDNGSGMHCHQSLWKDGAPLMYDETGYAGLSDTARHYIGGLLHHAPSLLAFTNPTVNSYKRLVPGYEAPINLVYSQRNRSACVRIPITGSNPKAKRLEFRSPDSSGNPYLAFSAMLMAGLDGIKNKIEPQAPVDKDLYELPPEEAASIPQTPTQLSDVIDRLEADHEYLTEGGVFTNDLIETWISFKRENEIEPVNIRPHPYEFALYYDV | soluble
8 | MIENAKENSQRVELKDRIIETASEAFTTHGIKSITMDDIAASLGISKRTLYEVFQDKESLLTQCILKRQEEMNAFLAETLANSKNVLEVILVCYQRSIETFHRTNKRFFEDIKKYPKVHSLLKNYRERDSDSTIEFFKMGIKQGIFRDDVNFAIVNLLVHEQLDLLMNTDICNKYSFLEVYEAIMFTYIRGISTEKGAKVLEDFITEYRKQRIH | not soluble
9 | MKQCAHTKVWQTIVAEAREQAEQEPMLASFYHATIIKHDSLKAALSYILANRLNTASMPAMAVREVIEEAFAADPSISEAAACDICATVNRDPAVSMYSMPLLYLKGYHALQGYRVANWLWRQGRKALATYFQNQISVACQVDIHPAARIGRGIMLDHATGIVIGETAVVEDDVSILQDVTLGGTGKECGDRHPKIREGVMIGAGAKILGNIEVGEGAKIGSGSVVLQAVPPHTTVAGVPARIVGRPQSDKPSLDMDQQFNGRSQTFIGGDGI | not soluble
10 | ELSGDDQGDEEEDDHAYEGVPNGGWHTSSLSLSLPSTIAAPHPMDGPPGGSTPVTPVIKAGWLDKNPPQGSYIYQKRWVRLDTDHLRYFDSNKDAYSKRFISVACISHVAAIGDQKFEVITNNRTFAFRAESDVERKEWMQALQQAMAEQRARARLSSAYLLGVPGSEQPDRAGSLELRGFKNKLYVAVVGDKVQLYKNLEEYHLGIGITFIDMSVGNVKEVDRRSFDLTTPYRIFSFSADSELEKEQWLEAMQGAIAEALSTSEVAERIWAAAPNRFCADCGAPQPDWASINLCVVICKRCAGEHRGLGAGVSKVRSLKMDRKVWTETLIELFLQLGNGAGNRFWAANVPPSEALQPSSSPSTRRCHLEAKYREGKYRRYHPLFGNQEELDKALCAAVTTTDLAETQALLGCGAGINCFSGDPEAPTPLALAEQAGQTLQMEFLRNNRTTEVPRLDSMKPLEKHYSVVLPTVSHSGFLYKTASAGKLLQDRRAREEFSRRWCVLGDGVLSYFENERAVTPNGEIRASEIVCLAVPPPDTHGFEHTFEVYTEGERLYLFGLESAEQAHEWVKCIAKAFVPPLAEDLLARDFERLGRLPYKAGLSLQRAQEGWFSLSGSELRAVFPEGPCEEPLQLRKLQELSIQGDSENQVLVLVERRRTLYIQGERRLDFMGWLGAIQKAAASMGDTLSEQQLGDSDIPVIVYRCVDYITQCGLTSEGIYRKCGQTSKTQRLLESLRQDARSVHLKEGEQHVDDVSSALKRFLRDLPDGLFTRAQRLTWLEASEIEDEEEKVSRYRELLVRLPPVNRATVKALISHLYCVQCFSDTNQMNVHNLAIVFGPTLFQTDGQDYKAGRVVEDLINHYVVVFSVDEEELRKQREEITAIVKMRVAGTASGTQHAGDFICTVYLEEKKAETEQHIKVPASMTAEELTLEILDRRNVGIREKDYWTCFEVNEREEAERPLHFAEKVLPILHGLGTDSHLVVKKHQAMEAMLLYLASRVGDTKHGMMKFREDRSLLGLGLPSGGFHDRYFILNSSCLRLYKEVRSQRPWSGAPETSHRPEKEWPIKSLKVYLGVKKKLRPPTCWGFTVVHETEKHEKQQWYLCCDTQMELREWFATFLFVQHDGLVWPSEPSRVSRAVPEVRLGSVSLIPLRGSENEMRRSVAAFTADPLSLLRNV | soluble
11 | MSLTALQQMTVLFVDDEEIAREQMKMVLSSFCKNTICVGSADQALAALQEHHPDIVLTDIRMPGLSGIELLNAVKQKDASVAVVIVSAHSESEYLLDAFRYKADGYLLKPFNFHEMLELLSDIATQKEAASSERKQGPDNRDFLLKILDTLGGRRAEIMEYVINHLDADNLFHGTYDEVAEALSASKPTVVATFQIMLEKNVLTRLKYGTYRMNVDATEGHHHHHH | soluble
12 | MSAIPAEESDQLLIRPLGAGQEVGRSCIILEFKGRKIMLDCGIHPGLEGMDALPYIDLIDPAEIDLLLISHFHLDHCGALPWFLQKTSFKGRTFMTHATKAIYRWLLSDYVKVSNISADDMLYTETDLEESMDKIETINFHEVKEVAGIKFWCYHAGHVLGAAMFMIEIAGVKLLYTGDFSRQEDRHLMAAEIPNIKPDILIIESTYGTHIHEKREEREARFCNTVHDIVNRGGRGLIPVFALGRAQELLLILDEYWQNHPELHDIPIYYASSLAKKCMAVYQTYVNAMNDKIRKQININNPFVFKHISNLKSMDHFDDIGPSVVMASPGMMQSGLSRELFESWCTDKRNGVIIAGYCVEGTLAKHIMSEPEEITTMSGQKLPLKMSVDYISFSAHTDYQQTSEFIRALKPPHVILVHGEQNEMARLKAALIREYEDNDEVHIEVHNPRNTEAVTLNFR | soluble
